In assay [1] the target is Tau in cerebrospinal fluid of cynomolgus monkeys (free Tau / extracellular Tau, eTau) (cynomolgus monkey (Macaca fascicularis)). In words: cell-based or functional assay.
The target is the same in assay [2]. The assay is described as follows: estimate from a PK/PD model fitted to free eTau (ELISA) in CSF of cynomolgus monkeys dosed with hu-IPN002; not a direct binding assay.

By Kd is commonly meant the free concentration of one partner at which half of the binding sites on the other are occupied at equilibrium, for simple one-to-one binding.

B1: hu-IPN002 (antibody, IgG4, V domains shown)
VH: EVHLVESGGALVKPGGSLRLSCAASGFSFSKYGMSWVRQAPGKGLEWVATISSSGSRTYYPDSVKGRFTISRDNAKNTLYLQMNSLRAEDTAMYYCSISWDGAMDYWGQGTTVTVSS
VL: DVVMTQSPLSLPVTLGQPASISCKSSQSIVHSNGNTYLEWYLQKPGQSPQLLVYKVSNRFSGVPDRFSGSGSGTDFTLKISRVEAEDVGTYYCFQGSLVPWAFGGGTKVEIK
Take B1: in assay [1], the free eTau level in CSF between 8 and 168 hours, 20 mg/kg dose (% of baseline) is 1.35 to 7.44; the free eTau level in CSF between 48 and 96 hours, 5 mg/kg dose (% of baseline) was in the range of 17.3 to 21; the maximal reduction of CSF free eTau, single 5 mg/kg IV dose in cynomolgus monkeys was found to be 83%; the maximal reduction of CSF free eTau, single 20 mg/kg IV dose in cynomolgus monkeys was determined as 99%. The Kd in assay [2] is 0.16 nM.

Values taken from US20160289309A1.
